One molecule from paper doi:10.1101/2023.01.09.523197 can be followed below.

The target of this data set is GlnR147-Alexa647;RNAP holoenzyme (Mycobacterium …, UniProt O53830;P9WGZ1;P9WGY9;P9WGY7;P9WGY5;P9WGI1 1-255;1-347;1-1178;1-1316;1-110;1-528, C61S;L148C|). The data set can be described thus: […], SEC in 20 mM Tris-HCl pH 8.0, 75 mM NaCl, 5 mM MgCl2.

B1: amtB+2Cy3 (dsDNA)
DNA 1: GCCCCGGCCGTTCACCCACGCGTAACACGCACCGTGCCTTCGTCACGGCGGCGAAACAACGAGGGGCTTCCACCGAAACCGCGCTGCGTCAATGTCGTGGCGCATAACCGGCCCACCCCT
DNA 2: AGGGGTGGGCCGGTTATGCGCCACGACATTGACGCAGCGCGGTTTCGGTGGAAGCCCCTCGTTGTTTCGCCGCCGTGACGAAGGCACGGTGCGTGTTACGCGTGGGTGAACGGCCGGGGC
Regarding B1, the binding result is on record as “binds”.
